Source: US5876717A (Ajinomoto Co., Inc., dated 1999)

How the values were obtained:
[1] = tested on: β chain of IL-2 receptor on the surface of each YT cell; assay: Inhibition of binding of 125I-labelled TU27 or TU25 antibody to YT cells; design: species or system human; conditions: 4° C.
Protocol: (§1) In an RPMI-1640 culture medium containing 0.5% BSA and 0.02% NaN2 there were suspended 5×10^5 YT cells to which were added polypeptide Fv(TU27), TU27 antibody, polypeptide Fv(TU25) and TU25 antibody diluted with the same type culture medium to an appropriate concentration and then reacted for one hour at 4° C. Then a TU27 or TU25 antibody labelled with ^125 I according to the chloramine T method was added to the mixture which was subjected to a 2 hour reaction at 4° C., after which the radioactivity bound to cell surfaces was measured.

[2] = tested on: β chain of IL-2 receptor; assay: Inhibition of binding of 125I-labelled IL-2 to MOLT4 cells transfected with cDNA for the β chain of IL-2 receptor; design: species or system human; conditions: 4° C.
Protocol: To the resulting suspension were added polypeptide Fv(TU27), TU27 monoclonal antibody (originating in hybridoma FERM BP-2510), polypeptide Fv(TU25) and TU25 monoclonal antibody (originating in hybridoma FERM BP-3529) diluted with the same type culture medium to an appropriate concentration, and this was reacted for one hour at 4° C.

[3] = target: β chain of human IL-2 receptor (human, UniProt P14784); assay: competition with 125I-labelled TU27 or TU25 antibody on YT cells
Protocol: as §1, with “NaN_2” for “NaN2”, “^125I” for “^125 I”

Molecule | activity to inhibit the binding between TU27 or TU25 monoclonal antibody and the β chain of IL-2 receptor [1] | activity to inhibit the binding of IL-2 to a β chain of an IL-2 receptor [2] | binding result [3]
polypeptide Fv(TU25) (scFv) scFv: MDIQLTQSPAILSVSPGERVSFSCRASQTIGTSIHWYQQRTNGSPRLLIKYASESISGIPSRFSGSGSGTDFTLSINNVESEDIADYYCQQTNTWPTTFGSGTKLELKVDKSSGSGSESKSTQVKLEQSGGGLVKPGGSLKLSCAASGFAFSSYDMSWVRQTPEKRLNWVATFSSDGSDTDYPDSVKGRFTISRDNARNTLYLQMSSLRSEDTALYYCARGYPYAMDYWGQGTTVTVSS | have activity to inhibit the binding | have activity to inhibit the binding of IL-2 | binds
Fv(TU27): single chain polypeptide of 240 amino acids consisting only of V regions of TU27 anti-IL-2 receptor β chain antibody (protein) scFv: MDILLTQSPAILSVSPGERVSFSCRASQSIGTSIHWYQQRTNGSPRLLIKYASESLSGIPSRFSGSGSGTDFTLSITSVDSEDIADYYCQQTNSWPTTFGGGTKLELKVDKSSGSGSESKSTQVKLEESGPGLVKPSQSLSLTCTVTGYPITSDYAWDWIRQFPGNKLEWMGYVSYSGSTDYNPSLKSRISISRDTSKNQFFLQLNSVTTEDTATYYCARGGFPYAMDYWGQGTTVTVSS | have activity to inhibit the binding | have activity to inhibit the binding of IL-2 | 
